Measured values: US20250312468A1, “ANTI-PROTAC ANTIBODIES AND COMPLEXES” (Merck Patent GmbH, priority 2021, published 2025)

B1: MIC7: anti-PROTAC VHH clone, SEQ ID NO: 20 (protein)
VHH: AVQLVESGGGLVQAGGSLRLSCAASGFSFDDYALGWFRQAPGKEPEGLSCISSSDGSTWYADSVKGRFTISSDNAKNTVYLQMNSLKPEDTAVYYCSAIYRLSCSVVRPTIRYALDYWGQGTQVTVSS
modifications: new world camelid
B2: MIC5: anti-PROTAC VHH clone, SEQ ID NO: 24 (protein)
VHH: AVQLVDSGGGLVQAGGSLRLSCAASGFTFDDYAIGWFRQAPGKEPEGILCISSSDGSAYVRDSVKGRFTMSSDNAKNTMYLQMNSLRTEDTAVYHCAVATGSCPADGGQKIFLEVWGQGTQVTVSS
modifications: new world camelid

Columns and labels:
HEPG2 cells = assay: CellTiter-Glo cell viability assay (VHH-based PAX); conditions: cetuximab-based construct, GNE987 (1:1)
Protocol: (§1) Several cell viability experiments were performed following the procedure described below: Cells were seeded in different media into white cell culture-treated flat and clear bottom multiwell plates followed by overnight incubation in a humid chamber at 37° C. and 5% CO2. Complexation was performed as described in chapter 7.4.
(§2) The solutions were added to the cells based on the antibody concentration using nanodrop dispension using a Tecan D300e Digital Dispenser and all wells were normalized to the same volume using 0.3% TW20 in PBS pH 7.4 and DMSO to a final solvent concentration of 0.05% DMSO and 0.003% TW20. Incubation was performed at 37° C. at 5% or 10% CO2 dependent on the medium. The assay was developed after 3 days if not otherwise stated using CellTiter-Glo Luminescent Cell Viability Assay as described in the manufacturer's protocol. In brief, the plates were equilibrated to room temperature for 30 minutes. 100 mL CellTiter-Glo Buffer were added to the CellTiter-Glo Substrate Flask and mixed well. 30 μL of the reagent was transferred to each well. After incubation for 3 minutes at room temperature while shaking at 550 rpm, the plate was incubated for another 10 minutes at room temperature. The luminescence was read on an Envision reader from Perkin Elmer. Solvent alone and Bortezomib (1.0E-05 M) served as high control (100% viability) and low control (0% viability), respectively. Raw data were converted into percent cell viability relative to the high and low control, which were set to 100% and 0%, respectively. […] The concentration corresponds to the concentration of PROTACs in the PAX.

MDAMB468 cells = assay: CellTiter-Glo cell viability assay (VHH-based PAX); conditions: gemtuzumab-based vs cetuximab-based construct, GNE987 (1:1)
Protocol: as §1, §2

Molecule | Selectivity Index IC50 of C on HEPG2/MDAMB468 (HEPG2 cells) | Selectivity Index IC5O(G)/IC50(C) (MDAMB468 cells)
B1 | 565.3 | 20.9
B2 | – | 98.1
